Data reported in patent US6368619B1, “Hydrophobic preparations of hydrophilic species and process for their preparation” (Provalis UK Limited, priority 1993, dated 2002).
Values belong to the substance of their own block, whether it stands above or below them.

How the values were obtained:
Format in all cases: physicochemical
[1] = Turbidity of oil preparations by optical density / absorbance (plate reader); settings: Example 9: egg lysophosphatidyl choline, oleic acid, 4.6 mg insulin/g
Description: It is very much preferred that the preparations of the invention are optically clear and this can be monitored by measuring turbidity at visible wave lengths and, in some cases, by checking for sedimentation over a period of time. […]
Aprotinin was dissolved in distilled water at a concentration of 10 mg/ml. Hexadecyl phosphocholine (HDPoC) was dissolved in distilled water at a concentration of 100 mg/ml. To aliquots of 100 μl of aprotinin solution, volumes of HDPOC were added ranging from 0 through to 10, 20, 30, 40 to 50 μl. The mixtures were frozen at −20° C. and lyophilised overnight. The following day 100 μl of oleic acid was added to each sample and shaken for one hour at room temperature on an orbital shaker.
Octyl glucoside was dissolved in distilled water and dispensed into wells of a microplate to give the following amounts of amphiphile per well: −0, 0.5, 1.0, 1.5, 2.0, 2.5, 5, 7.5 and 10 mg. Aprotinin was dissolved in distilled water at a concentration of 5 mg/ml, and 100 μl was dispensed into each well above, containing 0.5 mg of protein. The plate was mixed well, frozen at −20° C. and lyophilised overnight. The following day, […] of oleic acid was added to each well. The plate was shaken at room temperature, and optical density measurements at 550 nm taken at intervals with a plate reader. A low absorbance value indicates a low level of scattering, and corresponds to effective dispersion of protein in oil.
The results, expressed in terms of optical density as a function of octyl glucoside concentration (at constant protein concentration) at different times after addition of oleic acid are given in the table and accompanying graph.

[2] = Stability of oil preparations on storage, standing or freeze-thawing (appearance)
Description: Egg PC SUVs at a concentration of 100 mg PC/ml were prepared as in Example 1. An insulin solution at 10 mg/ml was made by preparing an aqueous suspension at a slightly higher concentration, adding glacial acetic acid at a rate of 20 mg/g of insulin used, and then adding sufficient water to give the desired insulin concentration. After mixing and standing for 15 minutes, a clear solution was formed. To 1.25 ml of SUVs in a test-tube, were added 1.25 ml of insulin solution, and the mixture shell-frozen and freeze-dried overnight. The following day, 0.252 g of oleic acid was added and the tube vortexed to completely “wet” the lyophilate.
The HRPO solution was divided into two -equal portions, and one portion was put through five freeze-thaw cycles by cooling repeatedly to +4° C., solidifying the oleic acid each time, before bringing it back to room temperature.
The same procedure employed as described in Example 19, except that bovine brain sphingomyelin was used instead of phosphatidyl choline, resulting in proportions by weight of insulin/sphingomyelin/oleic acid of 5/50/200.

[3] = Dispersion of hydrophilic species/amphiphile array in hydrophobic solvent: visual optical clarity
[4] = Optical density at 600 nm of melanin solutions in oil (M818) and water; settings: for Measurement at 600 nm, Water: Example 26: melanin alone in distilled water
Description: 10 mg of melanin were added to 1 ml of distilled water, and dissolved after raising pH with ammonium hydroxide solution. 50 ul of this concentrated solution was diluted 20-fold by addition to 950 ul of distilled water. To two rows of seven wells of a microplate 0, 12.5, 25, 37.5, and 50 ul of the dilute solution were added, and 12.5 and 25 ul of the concentrated solution. To each well of one row was added 100 ul of a soya phosphatidyl choline dispersion prepared by sonication for ten minutes with cooling at a concentration of 100 mg/ml. The other row was left untouched, the plate was mixed well, frozen at −20° C. and lyophilised overnight. The following day, 100 ul of M818 were added to wells in the row containing melanin/lipid complex, and 100 ul of distilled water was added to the wells in the row containing melanin alone. […] It will be seen from the table and accompanying graph that Beer-Lambert's law is obeyed over this concentration range (ie the response curve is linear), and that the behaviour of melanin is identical for both oil and aqueous solutions.

[5] = Centrifugation of melanin dispersions in M818

Substance: insulin
absorbance at 600 nm [1]: 0.023
change in appearance (eg sedimentation) on storage ([2]; Example 5: 7 weeks storage under nitrogen in a sealed tube at room temperature): no apparent change in the appearance
appearance on standing ([2]; Example 20: sphingomyelin/oleic acid, room temperature for several days): solid opaque gel
appearance of gel on warming ([2]; Example 20: sphingomyelin/oleic acid, warming to 37° C.): clear solution again
appearance of preparation ([3]; Example 5: egg PC SUVs, 0.252 g oleic acid, left overnight): yellow, optically clear dispersion displaying strong opalescence
appearance of dispersion ([3]; Example 6: 5 mg soy PC, 0.47 mg protein, 100 mg diolein, initially granular): became clear after 2 hours
appearance of dispersion ([3]; Example 8: DPPC SUVs 15 mg, 1.4 mg protein, 300 mg oleic acid): clear
appearance of dispersion ([3]; Example 9: egg lysophosphatidyl choline micelles, 0.3 g oleic acid): clear dispersion
insulin content of clear dispersion ([3]; Example 9: egg lysophosphatidyl choline, oleic acid): 4.6 mg insulin/g of oleic acid
appearance of dispersion ([3]; Example 10: soy PC SUVs, 300 mg Miglyol 810, following day): slightly opalescent
appearance of dispersion ([3]; Example 10: soy PC SUVs, 300 mg Miglyol 812, following day): completely clear
appearance of dispersion ([3]; Example 10: soy PC SUVs, 300 mg Miglyol 818, following day): completely clear
appearance of dispersion ([3]; Example 10: soy PC SUVs, 300 mg Miglyol 829, following day): turbid gel
appearance of dispersion ([3]; Example 10: soy PC SUVs, 300 mg Miglyol 840, following day): completely clear
appearance of solution ([3]; Example 20: bovine brain sphingomyelin, insulin/sphingomyelin/oleic acid 5/50/200, one hour mixing): completely clear solution
appearance of dispersions ([3]; Example 33: soy PC SUV, melts of tripalmitin, triheptadecanoin or tristearin with 2% oleic acid, 78 C, 1 to 2 hours): almost clear dispersions
appearance of dispersion ([3]; Example 36: AOT amphiphile, 200 mg octanol, standing overnight): clear after standing overnight

Measurement at 600 nm, Water ([4]; Concn 0.0625 mg/ml): 0.072
Measurement at 600 nm, Water ([4]; Concn 0.125 mg/ml): 0.159
Measurement at 600 nm, Water ([4]; Concn 0.187 mg/ml): 0.23
Measurement at 600 nm, Water ([4]; Concn 0.25 mg/ml): 0.333
Measurement at 600 nm, Water ([4]; Concn 1.25 mg/ml): 1.259
Measurement at 600 nm, Water ([4]; Concn 2.5 mg/ml): 2.653
Measurement at 600 nm, Miglyol ([4]; Example 26: melanin/soya PC complex in M818, Concn 0.0625 mg/ml): 0.078
Measurement at 600 nm, Miglyol ([4]; Example 26: melanin/soya PC complex in M818, Concn 0.125 mg/ml): 0.157
Measurement at 600 nm, Miglyol ([4]; Example 26: melanin/soya PC complex in M818, Concn 0.187 mg/ml): 0.23
Measurement at 600 nm, Miglyol ([4]; Example 26: melanin/soya PC complex in M818, Concn 0.25 mg/ml): 0.306
Measurement at 600 nm, Miglyol ([4]; Example 26: melanin/soya PC complex in M818, Concn 1.25 mg/ml): 1.565
Measurement at 600 nm, Miglyol ([4]; Example 26: melanin/soya PC complex in M818, Concn 2.5 mg/ml): 2.857
Substance: melanin
behaviour of dispersion on centrifugation ([5]; Example 26: dispersed in M818 by sonication in the absence of phosphatidyl choline): black dispersion, which sedimented out after centrifugation giving a clear supernatant
behaviour of dispersion on centrifugation ([5]; Example 26: melanin/lipid complex dispersed in M818): No such changes were observed after centrifugation
